Experiment [1] has as its target N,N′-diacetyl-Lys-D-Ala-D-Ala. Description: ITC, tri-peptide injected into dalbavancin, 25 °C, apparent value in the presence of 80.7 µM HSA. In general terms: ITC needs no label: the signal is the heat of the interaction.
For the next experiment, the target named is rat albumin (rat) (UniProt P02770). Nature of the experiment: ITC, single-site model.
The target in experiment [2] is human α-glycoprotein (human) (UniProt P02763). Description: ITC, single-site model.
For a further experiment, the target named is bovine albumin (bovine) (UniProt P02769). Description: ITC, single-site model.
The target in another experiment is dog albumin (dog) (UniProt P49822). Description: ITC, single-site model.
Experiment [3] has as its target N,N′-diacetyl-Lys-D-Ala-D-Ala. Description: ITC, no HSA.
Experiment [4] has as its target human α-glycoprotein (human) (UniProt P02763). Nature of the experiment: calculated from ITC Ka; 165 µM antibiotic, 1.5×10^-5 M α-glycoprotein assumed.
Experiment [5] addresses human serum albumin (human) (UniProt P02768). Description: calculated from ITC Ka; 10 µM antibiotic, 6×10^-4 M human serum albumin assumed.
For experiment [6], the target named is human α-glycoprotein (human) (UniProt P02763). Nature of the experiment: calculated from ITC Ka; 10 µM antibiotic, 1.5×10^-5 M α-glycoprotein assumed.
The target in experiment [7] is human serum albumin (human) (UniProt P02768). Description: calculated from ITC Ka; 250 µM antibiotic, 6×10^-4 M human serum albumin assumed.
For experiment [8], the target named is human α-glycoprotein (human) (UniProt P02763). Nature of the experiment: calculated from ITC Ka; 1 µM antibiotic, 1.5×10^-5 M α-glycoprotein assumed.
The target is the same in experiment [9]. Nature of the experiment: calculated from ITC Ka; 500 µM antibiotic, 1.5×10^-5 M α-glycoprotein assumed.
The target of experiment [10] is N,N′-diacetyl-Lys-D-Ala-D-Ala. Nature of the experiment: ITC, tri-peptide injected into dalbavancin, 10 °C, no HSA.
Experiment [11] concerns the target human α-glycoprotein (human) (UniProt P02763). Description: calculated from ITC Ka; 100 µM antibiotic, 1.5×10^-5 M α-glycoprotein assumed.
Experiment [12] concerns the target human serum albumin (human) (UniProt P02768). Nature of the experiment: calculated from ITC Ka; 165 µM antibiotic, 6×10^-4 M human serum albumin assumed.
The target of experiment [13] is N,N′-diacetyl-Lys-D-Ala-D-Ala. Nature of the experiment: ITC, tri-peptide injected into dalbavancin, 25 °C, apparent value in the presence of 34.2 µM HSA.
In experiment [14] the target is human α-glycoprotein (human) (UniProt P02763). Nature of the experiment: calculated from ITC Ka; 250 µM antibiotic, 1.5×10^-5 M α-glycoprotein assumed.
In experiment [15] the target is human serum albumin (human) (UniProt P02768). Description: calculated from ITC Ka; 100 µM antibiotic, 6×10^-4 M human serum albumin assumed.
Experiment [16] shares this target. Nature of the experiment: calculated from ITC Ka; 500 µM antibiotic, 6×10^-4 M human serum albumin assumed.
Experiment [17] shares this target. Nature of the experiment: calculated from ITC Ka; 1 µM antibiotic, 6×10^-4 M human serum albumin assumed.
The target of experiment [18] is N,N′-diacetyl-Lys-D-Ala-D-Ala. Description: ITC, tri-peptide injected into dalbavancin, 25 °C, apparent value in the presence of 13.6 µM HSA.

“And” between values parts separate entries of the source, which are not always exact repeats. Equal values may be shown once.

Chain of human α-glycoprotein (human) (P02763 19-201): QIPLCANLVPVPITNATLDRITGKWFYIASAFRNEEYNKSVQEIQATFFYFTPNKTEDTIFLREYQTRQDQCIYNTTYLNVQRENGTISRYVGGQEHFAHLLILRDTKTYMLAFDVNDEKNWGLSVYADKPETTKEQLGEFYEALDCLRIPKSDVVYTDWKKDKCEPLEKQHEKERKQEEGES
Chain of rat albumin (rat) (P02770 25-608 limits assumed): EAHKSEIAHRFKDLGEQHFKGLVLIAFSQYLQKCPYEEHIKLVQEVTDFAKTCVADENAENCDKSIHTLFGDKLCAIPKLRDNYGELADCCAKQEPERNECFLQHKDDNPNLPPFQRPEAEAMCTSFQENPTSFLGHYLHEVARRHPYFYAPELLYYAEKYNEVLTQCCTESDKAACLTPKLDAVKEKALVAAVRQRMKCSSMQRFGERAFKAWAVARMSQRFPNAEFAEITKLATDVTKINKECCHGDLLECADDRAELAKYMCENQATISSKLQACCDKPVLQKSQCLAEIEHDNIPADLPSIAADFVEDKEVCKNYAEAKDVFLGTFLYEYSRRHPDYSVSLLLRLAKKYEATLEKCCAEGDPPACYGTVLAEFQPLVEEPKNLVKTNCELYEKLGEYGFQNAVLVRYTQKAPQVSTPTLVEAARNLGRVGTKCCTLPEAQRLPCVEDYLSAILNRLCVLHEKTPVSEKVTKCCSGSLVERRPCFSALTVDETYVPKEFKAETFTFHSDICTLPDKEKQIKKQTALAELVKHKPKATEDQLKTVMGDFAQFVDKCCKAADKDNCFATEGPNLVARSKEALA
Chain of bovine albumin (bovine) (P02769 25-607 limits assumed): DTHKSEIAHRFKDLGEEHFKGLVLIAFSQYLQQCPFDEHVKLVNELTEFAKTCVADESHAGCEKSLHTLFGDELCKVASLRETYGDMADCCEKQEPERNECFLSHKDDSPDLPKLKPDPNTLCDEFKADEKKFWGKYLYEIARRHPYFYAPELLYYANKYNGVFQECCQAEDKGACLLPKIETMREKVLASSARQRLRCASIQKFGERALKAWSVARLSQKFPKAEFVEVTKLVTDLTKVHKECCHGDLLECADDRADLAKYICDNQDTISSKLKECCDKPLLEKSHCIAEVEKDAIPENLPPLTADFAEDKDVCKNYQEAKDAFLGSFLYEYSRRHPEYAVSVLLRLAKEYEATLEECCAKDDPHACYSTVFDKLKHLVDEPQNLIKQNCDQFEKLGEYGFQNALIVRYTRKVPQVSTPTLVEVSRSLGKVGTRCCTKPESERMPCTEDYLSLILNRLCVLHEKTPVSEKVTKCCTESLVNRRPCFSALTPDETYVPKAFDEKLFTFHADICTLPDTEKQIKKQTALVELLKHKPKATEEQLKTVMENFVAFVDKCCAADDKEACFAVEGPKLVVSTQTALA
Chain of dog albumin (dog) (P49822 25-608 limits assumed): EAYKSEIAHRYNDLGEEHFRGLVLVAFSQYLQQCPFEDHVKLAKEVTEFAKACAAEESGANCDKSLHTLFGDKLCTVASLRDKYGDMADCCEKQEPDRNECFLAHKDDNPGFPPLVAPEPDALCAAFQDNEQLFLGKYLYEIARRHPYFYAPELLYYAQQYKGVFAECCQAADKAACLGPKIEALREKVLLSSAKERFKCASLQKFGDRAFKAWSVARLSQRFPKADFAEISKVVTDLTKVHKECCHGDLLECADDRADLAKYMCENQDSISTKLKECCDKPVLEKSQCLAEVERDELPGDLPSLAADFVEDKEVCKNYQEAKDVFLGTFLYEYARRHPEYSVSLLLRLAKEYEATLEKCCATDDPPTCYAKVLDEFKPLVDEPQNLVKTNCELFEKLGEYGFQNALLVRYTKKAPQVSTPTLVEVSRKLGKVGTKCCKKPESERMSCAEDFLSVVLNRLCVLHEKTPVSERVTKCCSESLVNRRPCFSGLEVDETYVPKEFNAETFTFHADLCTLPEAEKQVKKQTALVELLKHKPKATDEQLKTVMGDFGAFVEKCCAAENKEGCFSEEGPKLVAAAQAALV

With dalbavancin (peptide), the N in experiment [1] is 0.83; in experiment [3], 0.5; in [10] it was 0.59 and 0.56; in experiment [13] it was 0.68; in [18], 0.35 and 0.37. In addition, the N (binding stoichiometry, protein per dalbavancin) (with rat albumin (rat); in experiment [2]; in the experiment with bovine albumin (bovine); with dog albumin (dog)) was less than 1 in each case. The calculated percent binding in experiment [4] was 16.9%; in [5], 98.8%; in experiment [6], 68.2%; in experiment [7], 98.5%; in experiment [8], 73%; in experiment [9], 5.9%. In addition, the calculated percent binding is 26.2% in experiment [11]; 98.6% in experiment [12]; 11.4% in experiment [14]; 98.7% in experiment [15]; 98% in experiment [16]; 98.8% in experiment [17].
In the case of teicoplanin (peptide), the calculated percent binding in [5] is 98.3%; in experiment [6] it was 9.1%; in [8] it was 9.6%; in experiment [11], 6%; in experiment [15], 98%; in experiment [17] it was 98.3%.

The values are drawn from patent US20090305953A1.
